Substrate in data set [1]: Nc1ncnc2c1ncn2[C@@H]1O[C@H](COP(=O)(O)OP(=O)(O)O)[C@@H](O)[C@H]1O
As to the kind of experiment: radiolabelled uptake (Michaelis-Menten) in intact E. coli cells expressing HvBT1; also counter-exchange and reduction of ADP-Glc uptake. The format is cell-based, Hordeum vulgare. Particulars: counter-exchange substrate with ADP-glucose.

Substrate in data set [2]: Nc1ncnc2c1ncn2[C@@H]1O[C@H](COP(=O)(O)OP(=O)(O)O[C@H]2O[C@H](CO)[C@@H](O)[C@H](O)[C@H]2O)[C@@H](O)[C@H]1O
As to the kind of experiment: radiolabelled uptake (Michaelis-Menten) in intact E. coli cells expressing HvBT1; empty-plasmid control subtracted. Format: cell-based, Hordeum vulgare.

B1: HvBT1 (barley plastidial ADP-glucose transporter) (Hordeum vulgare subsp. vulgare) (protein)
chain: MAAAMAATTMVTKNNGGSLAMDKKNWFFRPAPEVAFSWSSQPESRSLEFPRRALFASVGLSLSHDGKARPADDVAHQLAAAGDAGVQQAQKAKKAKKQQLGLRKVRVKIGNPHLRRLVSGAIAGAVSRTFVAPLETIRTHLMVGSSGADSMGGVFRWIMRTEGWPGLFRGNAVNVLRVAPSKAIEHFTYDTAKKYLTPEAGEPAKVPIPTPLVAGALAGVASTLCTYPMELVKTRLTIEKDVYDNLLHAFVKIVRDEGPGELYRGLAPSLIGVVPYAAANFYAYETLRGAYRRASGKEEVGNVPTLLIGSAAGAIASTATFPLEVARKQMQVGAVGGRQVYKNVLHAMYCILNKEGAAGLYRGLGPSCIKLMPAAGISFMCYEACKKILVDDKQDGEPQDQEETETGHTQGQAAPKSPNANGDRP
notes: codon-optimized ORF in pET16b with N-terminal His-tag, expressed in E. coli C43 (DE3)
Consider B1, for which the Km in data set [1] is 334.7 µM; in data set [2], 614.5 µM.

What is called Km is the concentration of substrate that gives half-maximal velocity.

These data come from publication PMC4043945, “Biochemical and Molecular Characterization of Barley Plastidial ADP-Glucose Transporter (HvBT1)” (PLoS ONE, 2014).
